Test results reported in patent publication US20170096461A1 (IMMATICS BIOTECHNOLOGIES, published 2017).

Target: T1, HLA-A*02:01 (peptide-receptive MHC class I monomer after UV-ligand exchange) (human)
T1 construct: Monomers made with a UV-sensitive peptide that is cleaved by UV and exchanged for the test peptide; captured on streptavidin plates; also called MHC molecules
Experiment: UV-ligand exchange + anti-b2m ELISA; exchange yield grade: + >=10%, ++ >=20%, +++ >=50, ++++ >=75%
Excerpt: Candidate peptides for T cell based therapies according to the present invention were further tested for their MHC binding capacity (affinity). The individual peptide-MHC complexes were produced by UV-ligand exchange, where a UV-sensitive peptide is cleaved upon UV-irradiation, and exchanged with the peptide of interest as analyzed. Only peptide candidates that can effectively bind and stabilize the peptide-receptive MHC molecules prevent dissociation of the MHC complexes. To determine the yield of the exchange reaction, an ELISA was performed based on the detection of the light chain (β2m) of stabilized MHC complexes. The assay was performed as generally described in Rodenko et al. (Rodenko et al., 2006).
96 well MAXISorp plates (NUNC) were coated over night with 2 ug/ml streptavidin in PBS at room temperature, washed 4× and blocked for 1 h at 37° C. in 2% BSA containing blocking buffer. Refolded HLA-A*02:01/MLA-001 monomers served as standards, covering the range of 15-500 ng/ml. Peptide-MHC monomers of the UV-exchange reaction were diluted 100 fold in blocking buffer. Samples were incubated for 1 h at 37° C., washed four times, incubated with 2 ug/ml HRP conjugated anti-β2m for 1 h at 37° C., washed again and detected with TMB solution that is stopped with […]. Absorption was measured at 450 nm. Candidate peptides that show a high exchange yield (preferably higher than 50%, most preferred higher than 75%) are generally preferred for a generation and production of antibodies or fragments thereof, and/or T cell receptors or fragments thereof, as they show sufficient avidity to the MHC molecules and prevent dissociation of the MHC complexes.

SLITDLQTI [peptide SLITDLQTI (SEQ ID NO: 124)] and AMLEEVNYI [peptide AMLEEVNYI (SEQ ID NO: 1)] fall in the same range of peptide exchange yield: 50 to 75% for the first, 50 to 75% for the second.

GLLEDERALQL [peptide GLLEDERALQL (SEQ ID NO: 42)] and SLAADIPRL [peptide SLAADIPRL (SEQ ID NO: 120)] fall in the same range of peptide exchange yield: 50 to 75% for the first, 50 to 75% for the second.

KLDKNPNQV [peptide KLDKNPNQV (SEQ ID NO: 123)] and GLLEVQVEV [peptide GLLEVQVEV (SEQ ID NO: 40)] fall in the same range of peptide exchange yield: 50 to 75% for the first, 50 to 75% for the second.

ALLPSDCLQEA [peptide ALLPSDCLQEA (SEQ ID NO: 115)] and ILIETKLVL [peptide ILIETKLVL (SEQ ID NO: 14)] fall in the same range of peptide exchange yield: 50 to 75% for the first, 50 to 75% for the second.

KMPDDVWLV [peptide KMPDDVWLV (SEQ ID NO: 106)] and LLLPGVIKTV [peptide LLLPGVIKTV (SEQ ID NO: 112)] cannot be ordered by peptide exchange yield: no less than 75% for the first, 50 to 75% for the second.

GLTETGLYRI [peptide GLTETGLYRI (SEQ ID NO: 110)] and SMMPDELLTSL [peptide SMMPDELLTSL (SEQ ID NO: 122)] fall in the same range of peptide exchange yield: 50 to 75% for the first, 50 to 75% for the second.

TMEEMIFEV [peptide TMEEMIFEV (SEQ ID NO: 21)] and GLLDPGMLVNI [peptide GLLDPGMLVNI (SEQ ID NO: 4)] fall in the same range of peptide exchange yield: 50 to 75% for the first, 50 to 75% for the second.

ALGEISVSV [peptide ALGEISVSV (SEQ ID NO: 18)] and RLLQDPVGV [peptide RLLQDPVGV (SEQ ID NO: 31)] cannot be ordered by peptide exchange yield: 50 to 75% for the first, no less than 75% for the second.

First: AAASLIRLV [peptide AAASLIRLV (SEQ ID NO: 126)]
Second: VMFNFPDQATV [peptide VMFNFPDQATV (SEQ ID NO: 2)]
The peptide exchange yield of the first is lower: 10 to 20% for the first, 50 to 75% for the second.

SLDIITITV [peptide SLDIITITV (SEQ ID NO: 27)] and MLFEGLDLVSA [peptide MLFEGLDLVSA (SEQ ID NO: 12)] cannot be ordered by peptide exchange yield: no less than 75% for the first, 50 to 75% for the second.

VLAEIDPKQLV [peptide VLAEIDPKQLV (SEQ ID NO: 3)] and YLWSEVFSM [peptide YLWSEVFSM (SEQ ID NO: 43)] fall in the same range of peptide exchange yield: 50 to 75% for the first, 50 to 75% for the second.

GLDPTQFRV [peptide GLDPTQFRV (SEQ ID NO: 39)] and FLTAFLVQI [peptide FLTAFLVQI (SEQ ID NO: 13)] fall in the same range of peptide exchange yield: 50 to 75% for the first, 50 to 75% for the second.

ALLVRLQEV [peptide ALLVRLQEV (SEQ ID NO: 116)] and SLFYNELHYV [peptide SLFYNELHYV (SEQ ID NO: 37)] cannot be ordered by peptide exchange yield: no less than 75% for the first, 50 to 75% for the second.

SLFERLVVL [peptide SLFERLVVL (SEQ ID NO: 109)] and LVFEGIMEV [peptide LVFEGIMEV (SEQ ID NO: 34)] cannot be ordered by peptide exchange yield: no less than 75% for the first, 50 to 75% for the second.

GLISSLNEI [peptide GLISSLNEI (SEQ ID NO: 38)] and YQIDTVINL [peptide YQIDTVINL (SEQ ID NO: 23)] cannot be ordered by peptide exchange yield: no less than 75% for the first, 50 to 75% for the second.

LLPEKSWEI [peptide LLPEKSWEI (SEQ ID NO: 22)] and MLDEILLQL [peptide MLDEILLQL (SEQ ID NO: 20)] fall in the same range of peptide exchange yield: 50 to 75% for the first, 50 to 75% for the second.

KMLDEAVFQV [peptide KMLDEAVFQV (SEQ ID NO: 26)] and SMYDKVLML [peptide SMYDKVLML (SEQ ID NO: 105)] cannot be ordered by peptide exchange yield: no less than 75% for the first, no less than 75% for the second.

KLPSFLANV [peptide KLPSFLANV (SEQ ID NO: 118)] and VLLTTAVEV [peptide VLLTTAVEV (SEQ ID NO: 19)] fall in the same range of peptide exchange yield: 50 to 75% for the first, 50 to 75% for the second.

AMYGTKLETI [peptide AMYGTKLETI (SEQ ID NO: 107)] and RMDGAVTSV [peptide RMDGAVTSV (SEQ ID NO: 36)] cannot be ordered by peptide exchange yield: no less than 75% for the first, 50 to 75% for the second.

FLMEEVHMI [peptide FLMEEVHMI (SEQ ID NO: 24)] and ILLDDQFQPKL [peptide ILLDDQFQPKL (SEQ ID NO: 108)] cannot be ordered by peptide exchange yield: 50 to 75% for the first, no less than 75% for the second.

KMLGLTVSL [peptide KMLGLTVSL (SEQ ID NO: 30)] and ALLEPGGVLTI [peptide ALLEPGGVLTI (SEQ ID NO: 114)] fall in the same range of peptide exchange yield: 50 to 75% for the first, 50 to 75% for the second.

ILVSQLEQL [peptide ILVSQLEQL (SEQ ID NO: 28)] and FMGDVFINV [peptide FMGDVFINV (SEQ ID NO: 35)] cannot be ordered by peptide exchange yield: no less than 75% for the first, no less than 75% for the second.

KAYQELLATV [peptide KAYQELLATV (SEQ ID NO: 41)] and SLMLVTVEL [peptide SLMLVTVEL (SEQ ID NO: 17)] fall in the same range of peptide exchange yield: 50 to 75% for the first, 50 to 75% for the second.

ALTSLELEL [peptide ALTSLELEL (SEQ ID NO: 32)] and VILDLPLVI [peptide VILDLPLVI (SEQ ID NO: 16)] fall in the same range of peptide exchange yield: 50 to 75% for the first, 50 to 75% for the second.

FLLDSAPLNV [peptide FLLDSAPLNV (SEQ ID NO: 117)] and SLLTAISEV [peptide SLLTAISEV (SEQ ID NO: 15)] cannot be ordered by peptide exchange yield: no less than 75% for the first, 50 to 75% for the second.

YMLEHVITL [peptide YMLEHVITL (SEQ ID NO: 121)] and FLPEAPAEL [peptide FLPEAPAEL (SEQ ID NO: 111)] fall in the same range of peptide exchange yield: 50 to 75% for the first, 50 to 75% for the second.

LLSEPSLLRTV [peptide LLSEPSLLRTV (SEQ ID NO: 125)] and GLSETILAV [peptide GLSETILAV (SEQ ID NO: 25)] cannot be ordered by peptide exchange yield: 50 to 75% for the first, no less than 75% for the second.
